This data set relates to T1, IFI16 (Homo sapiens), Q16666-2.
T1 sequence: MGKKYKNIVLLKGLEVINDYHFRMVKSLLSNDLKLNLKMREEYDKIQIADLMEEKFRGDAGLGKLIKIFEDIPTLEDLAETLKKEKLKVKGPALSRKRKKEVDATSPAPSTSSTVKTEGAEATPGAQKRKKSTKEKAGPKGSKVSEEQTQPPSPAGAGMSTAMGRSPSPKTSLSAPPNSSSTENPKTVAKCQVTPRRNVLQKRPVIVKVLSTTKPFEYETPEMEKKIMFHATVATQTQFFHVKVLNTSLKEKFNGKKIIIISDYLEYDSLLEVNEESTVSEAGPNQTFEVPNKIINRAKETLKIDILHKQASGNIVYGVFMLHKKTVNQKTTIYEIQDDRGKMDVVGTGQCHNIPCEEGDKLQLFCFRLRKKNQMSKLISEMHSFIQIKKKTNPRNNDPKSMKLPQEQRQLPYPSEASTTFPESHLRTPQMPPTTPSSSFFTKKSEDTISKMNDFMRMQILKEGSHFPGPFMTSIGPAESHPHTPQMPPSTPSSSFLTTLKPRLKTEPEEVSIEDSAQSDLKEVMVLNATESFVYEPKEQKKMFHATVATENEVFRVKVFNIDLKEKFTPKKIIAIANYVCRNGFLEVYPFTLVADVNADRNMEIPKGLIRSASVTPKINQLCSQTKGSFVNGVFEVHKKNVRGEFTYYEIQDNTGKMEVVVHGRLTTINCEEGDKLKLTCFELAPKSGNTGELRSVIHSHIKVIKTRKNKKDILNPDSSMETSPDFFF
The data set is described as follows: EMSA. The note with it: EMSA: 5 mM Tris-HCl pH 7.0, 1 mM EDTA, 50 mM KCl, 0.01% Triton X-100, 4 C, 15 min; gel 0.33x TBE (native PAGE with 50 mM KCl). For orientation: A gel shift assay detects complexes by their altered migration in electrophoresis.

As to “GGGTTAGGGTTAGGGTTAGGGTTAGGGTTAGGGTTAGGGTTAGGGTTAGGG (double strand) [DS HTEL]”, the binding signal (% bound at protein:DNA 4:1) turned out to be 50.

As for “TTGGGGCGCTTATGGGGAGGGTGGGGAGGGTGGGGAAGGTGGGGAGGAGACT (double strand) [DS NHEIII]”, the binding signal (% bound at protein:DNA 4:1) was 50.

The values are drawn from publication PMC4900677.
